The text below walks through data of US20250180582A1 (XIAMEN INNOBIOMAX BIOTECHNOLOGY, published 2025).

Holding throughout (assay): indirect ELISA, cell supernatant, antigen coated 200 ng/mL
For orientation: An ELISA detects its analyte on a solid surface through an enzyme-linked reagent.

Assay [1] concerns the target T1, antigen fused to pET-32a from Inbermax, Catalog No.: E1212.
T1 construct: Used for differential screening against the pET-32a fusion part
How it is done:
(§1) 3.6 Screening of hybridomas: Antigen 1 was used for primary screening, and two antigens that were also fused to pET-32a were used as accessory means for differential screening, in which both antigens were from Inbermax (Catalog No.: E11024, Catalog No.: E1212), and the self-made recombinant Antigen 2 and Antigen 3 were used at the same for identification. The screening method was an indirect ELISA, and its specific steps comprised: the plate was coated with the antigen at 200 ng/mL, 100 ul per well, added with 50 μL of cell supernatant, incubated at 37° C. for 30 minutes, washed 5 times with a plate washer, added with 100 ul of GAM-HRP prepared at 1:5K, incubated at 37° C. for 30 minutes, washed 5 times with a plate washer, added with a chromogenic solution at 100 ul/well, incubated at 37° C. for 15 minutes, added with a stop solution to terminated the reaction, and placed in a microplate reader to read signal values using dual wavelengths. Based on the experimental results, the cells in the corresponding positive wells were selected for the next step work.
(§2) 3.7 Cloning of hybridoma cells: Using the limiting dilution method, the cells were first diluted in gradient at certain concentrations, and then inoculated into each well of a 96-well cell culture plate, so that only one cell grew in the well as much as possible. The hybridoma monoclonal positive cell line was repeatedly cloned at least 3 times, and were confirmed as a stable clone after the final round was 100% positive. The positive standards were as described in 3.6.

For assay [2], the target named is T2, antigen fused to pET-32a from Inbermax, Catalog No.: E11024.
T2 construct: Used for differential screening against the pET-32a fusion part
As for the experimental part: as §1, §2

Assay [3] addresses T3, pET-32a-GPR37-1-613 full-length antigen (human, UniProt O15354 27-613).
T3 construct: Expressed in Escherichia coli from pET-32a and purified; also called Antigen 1; not shown: fusion partner/tags encoded by the pET-32a vector
T3 sequence: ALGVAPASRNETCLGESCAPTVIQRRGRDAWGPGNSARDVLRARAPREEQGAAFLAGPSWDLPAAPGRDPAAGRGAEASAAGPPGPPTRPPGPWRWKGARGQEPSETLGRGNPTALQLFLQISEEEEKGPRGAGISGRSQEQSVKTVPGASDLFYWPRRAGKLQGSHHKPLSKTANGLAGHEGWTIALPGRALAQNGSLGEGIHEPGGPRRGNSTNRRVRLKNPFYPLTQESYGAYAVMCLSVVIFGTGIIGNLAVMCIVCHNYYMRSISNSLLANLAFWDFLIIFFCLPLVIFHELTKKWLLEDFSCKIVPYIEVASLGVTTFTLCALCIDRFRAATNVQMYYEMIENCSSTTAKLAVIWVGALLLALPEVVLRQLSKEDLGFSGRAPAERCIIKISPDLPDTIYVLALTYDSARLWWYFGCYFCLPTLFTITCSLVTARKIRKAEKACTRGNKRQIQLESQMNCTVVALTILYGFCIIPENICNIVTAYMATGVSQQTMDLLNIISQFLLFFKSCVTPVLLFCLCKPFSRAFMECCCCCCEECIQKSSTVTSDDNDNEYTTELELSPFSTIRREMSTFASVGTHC
As for the experimental part:
as §1, §2

For assay [4], the target named is T4, pCold-TF-GPR37-1-265 extracellular segment protein (human, UniProt O15354 27-265).
T4 construct: also called Antigen 3; not shown: TF fusion partner encoded by the pCold-TF vector
T4 sequence: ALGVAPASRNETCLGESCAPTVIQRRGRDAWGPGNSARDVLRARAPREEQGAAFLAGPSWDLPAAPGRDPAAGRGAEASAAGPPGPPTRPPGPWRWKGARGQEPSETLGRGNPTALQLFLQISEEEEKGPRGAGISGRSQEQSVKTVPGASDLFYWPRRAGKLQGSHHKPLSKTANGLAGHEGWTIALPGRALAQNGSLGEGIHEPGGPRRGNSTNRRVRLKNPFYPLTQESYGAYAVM
How it is done: as §1, §2

Assay [5] deals with T5, pCold-TF-GPR37-1-613 full-length antigen (human, UniProt O15354 27-613).
T5 construct: Target fragment of Antigen 1 moved into the pCold-TF expression vector; also called Antigen 2; not shown: TF fusion partner encoded by the pCold-TF vector
T5 sequence: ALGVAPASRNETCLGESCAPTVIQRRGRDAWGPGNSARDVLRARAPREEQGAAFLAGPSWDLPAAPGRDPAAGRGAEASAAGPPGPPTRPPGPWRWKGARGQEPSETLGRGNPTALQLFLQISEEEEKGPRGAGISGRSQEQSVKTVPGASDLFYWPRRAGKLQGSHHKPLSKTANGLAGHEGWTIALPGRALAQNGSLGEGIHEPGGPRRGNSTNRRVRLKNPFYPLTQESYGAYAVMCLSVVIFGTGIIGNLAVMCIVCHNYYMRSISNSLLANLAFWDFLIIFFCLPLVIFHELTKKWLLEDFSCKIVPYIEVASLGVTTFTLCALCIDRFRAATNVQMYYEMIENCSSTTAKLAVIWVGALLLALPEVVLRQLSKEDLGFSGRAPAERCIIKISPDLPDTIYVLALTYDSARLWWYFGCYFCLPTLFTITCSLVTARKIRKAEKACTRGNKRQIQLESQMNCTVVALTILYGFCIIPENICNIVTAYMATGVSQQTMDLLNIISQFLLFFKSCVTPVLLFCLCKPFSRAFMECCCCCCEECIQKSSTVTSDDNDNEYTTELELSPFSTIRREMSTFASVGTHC
As for the experimental part: as §1, §2

B1: monoclonal antibody 5A2 (antibody, IgG2a, V domains shown)
VH: EVKLVESGGGLVQPGGSLRLSCATSGFIFSDYYMSWVRQPPGKALEWLGYIRNKAKRYTTEYNASVKGRFTISRDNSQNILYLQMNTLRAEDSATYYCARDTSDYDRFAYWGQGTLVTVSA
VL: DIVMTQTPLSLPVSLGDHASLSCKSSQSLVHRNGNTYLHWFLQKPGQSPKLLIYKVSNRFSGVPDRFSGSGSGTDFTLKISRVEAADLGVYFCSQSTLLPYTFGGGTKLEIK
notes: Mouse hybridoma antibody; also called mAb 5A2; 5A2-HRP
B1: the ELISA signal in assay [1] is 0.011 OD; in assay [2] it was 0.008 OD; in assay [3], 2.83 OD; in assay [4] it was 3.37 OD; in assay [5] it was 6.24 OD.

B2: monoclonal antibody 6D2 (antibody, IgG2a, V domains shown)
VH: EVMLVESGGGLVKPGGSLKLSCAASGFIFSSQAMSWVRQIPEKRLEWVATISSGGSYTYYPDSVKGRFTISRDNAKNTLYLQMSSLTSEDTAMYYCARQRDFGRYYGYDPFFDFWGQGTTLTF
VL: EIVLTQSPTTMAASPGEKITITCSASSSISSNYLHWYQQKPGFSPKLLIYRTSNLPSGVPARFSGSGSGTSYSLTIGTMEAEDVATYYCQQGSSVPRITFGAGTKLE
notes: Mouse hybridoma antibody; also called mAb 6D2
Turning to B2, the ELISA signal in assay [1] was found to be 0.01 OD; in assay [2] it was 0.009 OD; in assay [3] it was 3.37 OD; in assay [4] it was 3.54 OD; in assay [5], 2.81 OD.
